The target in assay [1] is T1, Rpn10/S5a (UIM motifs: 196-306aa) (UniProt P55036 196-306).
T1 sequence (looked up): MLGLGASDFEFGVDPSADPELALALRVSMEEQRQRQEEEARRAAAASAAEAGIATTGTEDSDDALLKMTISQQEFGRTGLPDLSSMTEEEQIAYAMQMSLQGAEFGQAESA
In words: NMR titration.

Assay [2] has as its target T1, Rpn10/S5a (UIM motifs: 196-306aa). In words: NMR titration. This is another data set of the same source.
The target is the same in assay [3]. In words: ITC. (In ITC the heat of successive injections is recorded.)
Assay [4] deals with hRpn13 (Pru domain: 1-150aa) (human, UniProt Q16186 1-150). The assay is described as follows: other fluorescence titration.
hRpn13 (Pru domain: 1-150aa), sequence (Q16186 1-150): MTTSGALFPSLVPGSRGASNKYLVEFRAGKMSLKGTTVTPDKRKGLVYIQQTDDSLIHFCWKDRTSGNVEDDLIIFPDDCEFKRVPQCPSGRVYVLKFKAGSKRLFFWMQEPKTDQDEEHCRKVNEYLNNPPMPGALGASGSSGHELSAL

The Kd is the free concentration of one partner at which half of the binding sites on the other are occupied at equilibrium, for simple one-to-one binding. A high value points to weaker binding. By stoichiometry N is commonly meant the number of molecules, sites or subunits per partner or assembly.

B1: viral Ubiquitin from Autographa Californica Multiple Nucleo-Polyhedrosis Virus (AcMNPV) (natural protein)
chain: not shown
In assay [1], B1 returned a Kd of 78 µM. In addition, in assay [2], the “KD of the UIM1 site” value amounted to 331 µM and the “KD of the UIM2 site” value came to 21 µM. Besides, in assay [3], the affinity, expressed as Kd, was 85 µM; the dH was -4.5 ± 0.3 kcal/mol; the “stoichiometry N” value worked out at 2 ± 0.1. The molecule further yielded a Kd in assay [4] of 40 nM.

The values are drawn from publication doi:10.1101/756791 (bioRxiv, 2019).
